Laboratory results taken from patent EP1724347A2.
Values belong to the substance of their own block, whether it stands above or below them.

Experiments:
protein kinase A [1] = assay: method not stated
protein kinase A [2] = assay: cell-based or functional assay
GST-KIX = assay: fluorescence polarization
[3] = molecular target: GST-hDM2 (residues 1-188) (human) (UniProt Q00987); assay: fluorescence polarization, competition format
[4] = molecular target: GST-hDM2 (residues 1-188) (human) (UniProt Q00987); assay: 400 nM GST-hDM2 and 10 nM p53AD-Flu in the absence of pZutshi
[5] = molecular target: GST-hDM2 (residues 1-188) (human) (UniProt Q00987); assay: fluorescence polarization, 25 nM labeled peptide with varying GST-hDM2, 4°C

Chain of GST-hDM2 (residues 1-188) (human) (Q00987 1-188): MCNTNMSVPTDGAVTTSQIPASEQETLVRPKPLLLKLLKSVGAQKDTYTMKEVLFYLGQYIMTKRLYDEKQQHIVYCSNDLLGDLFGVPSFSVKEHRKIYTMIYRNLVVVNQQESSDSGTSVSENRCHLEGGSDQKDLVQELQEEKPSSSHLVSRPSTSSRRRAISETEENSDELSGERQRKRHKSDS
Chain of GST-KIX (P45481 586-665): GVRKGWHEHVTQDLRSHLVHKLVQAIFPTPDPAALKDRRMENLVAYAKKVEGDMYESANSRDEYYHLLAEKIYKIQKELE

Substance: PKI (peptide)
Kd (protein kinase A [1]): 0.0312 µM | IC50 (inhibition of PKA) (protein kinase A [2]): 0.008 µM

Substance: Phosphorylated KID20 (peptide)
Kd (GST-KIX): 48 µM

Substance: Phosphorylated KID31 (peptide)
Kd (GST-KIX): 1.2 µM

Next, values leading:

Kd [3]: 1200 µM
Substance: p53AD peptide (residues 15-33), not labeled

percent bound [4]: 60% | Kd [5]: 0.261 µM
Substance: p53AD-Flu (peptide)
